Numbering of substitutions follows the chain as printed. In names and notes the source's numbering stands.
B1: CLC-ec1 QQQ mutant (E148Q/E203Q/E113Q) (natural protein, E. coli)
chain: MKTDTPSLETPQAARLRRRQLIRQLLERDKTPLAILFMAAVVGTLVGLAAVAFDKGVAWLQNQRMGALVHTADNYPLLLTVAFLCSAVLAMFGYFLVRKYAPEAGGSGIPEIQGALEDQRPVRWWRVLPVKFFGGLGTLGGGMVLGRQGPTVQIGGNIGRMVLDIFRLKGDEARHTLLATGAAAGLAAAFNAPLAGILFIIEQMRPQFRYTLISIKAVFIGVIMSTIMYRIFNHEVALIDVGKLSDAPLNTLWLYLILGIIFGIFGPIFNKWVLGMQDLLHRVHGGNITKWVLMGGAIGGLCGLLGFVAPATSGGGFNLIPIATAGNFSMGMLVFIFVARVITTLLCFSSGAPGGIFAPMLALGTVLGTAFGMVAVELFPQYHLEAGTFAIAGMGALLAASIRAPLTGIILVLEMTDNYQLILPMIITGLGATLLAQFTGGKPLYSAILARTLAKQEAEQLARSKAAS
notes: CLC-ec1, prokaryotic (E. coli) CLC Cl-/H+ exchange transporter, from plasmid pASK-CLC-ec1; Helix A (N-terminal) has no density in the model; also called ClC-ec1 triple mutant (E113Q, E148Q, E203Q)
B2: D417C/QQQ CLC-ec1 (cysteine-less background), spin-labeled (natural protein, E. coli)
chain: B1 chain with C85A, C302A, C347S, D417C
modifications: MTSSL spin label on the substituted cysteine at 417
notes: CLC-ec1, prokaryotic (E. coli) CLC Cl-/H+ exchange transporter, from plasmid pASK-CLC-ec1; Helix P; source: purified under reducing conditions, then labeled with MTSSL
B3: WT CLC-ec1 (cysteine-less background) D417C, spin-labeled (natural protein, E. coli)
chain: MKTDTPSLETPQAARLRRRQLIRQLLERDKTPLAILFMAAVVGTLVGLAAVAFDKGVAWLQNQRMGALVHTADNYPLLLTVAFLASAVLAMFGYFLVRKYAPEAGGSGIPEIEGALEDQRPVRWWRVLPVKFFGGLGTLGGGMVLGREGPTVQIGGNIGRMVLDIFRLKGDEARHTLLATGAAAGLAAAFNAPLAGILFIIEEMRPQFRYTLISIKAVFIGVIMSTIMYRIFNHEVALIDVGKLSDAPLNTLWLYLILGIIFGIFGPIFNKWVLGMQDLLHRVHGGNITKWVLMGGAIGGLAGLLGFVAPATSGGGFNLIPIATAGNFSMGMLVFIFVARVITTLLSFSSGAPGGIFAPMLALGTVLGTAFGMVAVELFPQYHLEAGTFAIAGMGALLAASIRAPLTGIILVLEMTCNYQLILPMIITGLGATLLAQFTGGKPLYSAILARTLAKQEAEQLARSK
modifications: MTSSL spin label on the substituted cysteine at 417
notes: as for B2

Assays:
[1] = target: the molecule itself; experiment: crystal structure; lipidic cubic phase (monoolein with 10% cholesterol), without any antibody Fab fragment; 100 mM Tris pH 8.5, 100 mM sodium malonate, 30% PEG 400, 2.5% MPD; 16°C
[2] = target: the molecule itself; experiment: DEER spectroscopy; one MTSSL spin label per subunit, inter-subunit distance distributions; pH 7.5 and pH 4.5; 83 K, Q-band; four-pulse protocol (five-pulse for position 374)

Protein | binding result [1] | binding result [2]
B1 | binds | –
B2 | – | binds
B3 | – | binds

Reference: publication PMC7253180, “A CLC-ec1 mutant reveals global conformational change and suggests a unifying mechanism for the CLC Cl^–/H^+ transport cycle” (eLife, 2020)
